# In patent US20210063414A1, “METHODS FOR PREVENTING AND/OR TREATING BONE LOSS CONDITIONS BY MODULATING IRISIN” (Dana-Farber Cancer Institute, Inc., priority 2018, published 2021):
# T1: MLO-Y4 cell surface proteins (Mus musculus, UniProt E9Q9D8)
# T1 construct: endogenous in cells; host or cells: MLO-Y4
# T1 sequence (E9Q9D8 1-996): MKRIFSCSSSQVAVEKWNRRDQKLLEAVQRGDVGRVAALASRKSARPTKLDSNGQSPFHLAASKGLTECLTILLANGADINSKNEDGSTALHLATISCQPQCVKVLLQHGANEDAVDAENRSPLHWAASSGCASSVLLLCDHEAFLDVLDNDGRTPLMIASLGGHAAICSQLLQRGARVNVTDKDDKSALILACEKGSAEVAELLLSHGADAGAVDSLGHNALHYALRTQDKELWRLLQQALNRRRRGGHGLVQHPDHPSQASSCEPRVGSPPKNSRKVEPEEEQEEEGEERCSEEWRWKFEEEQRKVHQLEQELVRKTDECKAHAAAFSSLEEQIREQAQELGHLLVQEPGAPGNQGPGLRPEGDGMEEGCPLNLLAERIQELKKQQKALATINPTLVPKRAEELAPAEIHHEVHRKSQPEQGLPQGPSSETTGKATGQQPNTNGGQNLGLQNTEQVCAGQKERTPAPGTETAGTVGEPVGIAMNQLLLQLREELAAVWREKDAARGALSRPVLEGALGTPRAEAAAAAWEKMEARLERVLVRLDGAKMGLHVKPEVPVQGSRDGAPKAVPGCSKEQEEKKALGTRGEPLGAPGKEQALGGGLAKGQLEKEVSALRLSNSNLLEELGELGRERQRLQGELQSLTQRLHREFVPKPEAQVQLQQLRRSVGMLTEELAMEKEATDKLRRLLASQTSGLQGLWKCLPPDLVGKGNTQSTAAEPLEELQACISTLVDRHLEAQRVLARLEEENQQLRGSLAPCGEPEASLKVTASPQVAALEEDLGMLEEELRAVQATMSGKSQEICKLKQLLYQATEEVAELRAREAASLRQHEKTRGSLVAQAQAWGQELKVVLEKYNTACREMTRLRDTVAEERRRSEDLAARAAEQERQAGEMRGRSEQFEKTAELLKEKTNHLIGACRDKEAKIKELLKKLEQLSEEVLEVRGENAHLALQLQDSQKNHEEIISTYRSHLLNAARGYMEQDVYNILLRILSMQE
# T2: MLO-Y4 cell surface proteins (Mus musculus, UniProt Q8K221)
# T2 construct: endogenous in cells; host or cells: MLO-Y4
# T2 sequence (Q8K221 1-341): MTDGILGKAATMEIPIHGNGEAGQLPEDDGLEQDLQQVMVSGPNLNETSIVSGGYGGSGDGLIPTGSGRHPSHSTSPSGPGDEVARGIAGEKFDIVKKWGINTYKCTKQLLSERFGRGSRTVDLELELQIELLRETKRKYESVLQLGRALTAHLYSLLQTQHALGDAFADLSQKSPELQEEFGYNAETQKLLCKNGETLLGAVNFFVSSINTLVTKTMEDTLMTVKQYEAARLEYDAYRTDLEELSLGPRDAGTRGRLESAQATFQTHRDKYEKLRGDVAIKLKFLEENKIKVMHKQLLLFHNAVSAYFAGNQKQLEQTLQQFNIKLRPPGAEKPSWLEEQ
# What was measured:
# [1] = molecular target: T1, MLO-Y4 cell surface proteins; experiment: Crosslinking/co-immunoprecipitation/mass spectrometry (TMT quantitative proteomics) to identify irisin receptors; type: binding; conditions: co-precipitated protein Ankrd35 (E9Q9D8_MOUSE)
# Protocol: (§1) MLO-Y4 cells were seeded on 30×150 mm type-I collagen coated dishes as described in cell culture experiment. At 60% cell density, medium was switched to FreeStyle™ 293 Expression medium. After 4 hours incubation, the cells were chilled on ice for 10 minutes, followed by treatment of 10 nM his-tag irisin or his-tag adipsin for 20 minutes. The cells were then incubated with 1.5 mM DTSSP for 30 minutes on ice to do cross-linking, after washing with 15 ml cold PBS twice. The cross-linking was quenched by addition of a final concentration of 20 mM Tris-pH 7.5. The cells were then harvested and homogenized in 1 ml RIPA buffer containing proteaseinhibitor cocktailand phosphatase-inhibitor cocktail. Whole-cell lysates were homogenized by 10 times passages through a 22G needle fitted to a 3 ml syringe. Homogenized samples were rotated gently in cold room for 20 minutes followed by 15,000×g centrifugation for 10 minutes. After addition of a final concentration of 10 mM imidazole, supernatants were incubated with 100 μl Ni-NTA agarose for 1 hour. After centrifugation at 500×g for 1 minute, the supernatants were aspirated and 1 ml cold RIPA buffer containing 10 mM imidazole were added to the agarose. After 10 minutes rotation in cold room, the supernatants were aspirated and 1 ml cold RIPA buffer containing 30 mM imidazole were added to the agarose. After repeating the washing 3 times, 0.8 ml RIPA buffer containing 250 mM imidazole was added and the agarose was gently rotated in a cold room for 20 minutes. After centrifugation at 1000×g for 2 minutes, the supernatants were transferred to 1.5 ml tube and incubated with 100 μl 0.2% sodium deoxycholate and 100 μl 10% trichloroacetic acid in ice for 1 hour. After centrifugation at 12,000×g for 10 minutes at 4° C., the supernatants were removed and 1 ml cold acetone was added to the pellets followed by vortexing for 10 seconds. After one more washing with cold acetone, the pellets were dried at 37° C., and 39 μl PBS and 13 μl 4×NuPAGE LDS were added to the pellets with a final concentration of 5 mM DTT. Solubilized proteins were incubated at 65° C. for 20 minutes followed by incubation with a final concentration of 14 mM iodoacetamide for 45 minutes in the dark. 38 μl samples were loaded to 4-12% gradient SDS-PAGE for separation followed by Coomassie Blue staining. The gels were submitted to quantitative proteomics.
# (§2) For in-gel digestions, gels were stained with Coomassie Blue and were excised into 8 equal segments for control and irisin lanes. Gel pieces were destained and dehydrated with 100% acetonitrile, vacuumed dried, and digested in 25 mM HEPES (pH 8.5) with 500 ng sequencing grade trypsin (Promega) and incubated for an overnight at 37° C. (Shevchenko et al. (1996) Anal. Chem. 68:850-858). Digests were treated with 1% formic acid and purified using C18 Stage-Tips as previously described (Rappsilber et al. (2007) Nat. Protoc. 2:1896-1906). Peptides were eluted with 70% acetonitrile and 1% formic acid, then dried using a speedvac. Isobaric labeling of digested peptides was accomplished using 6-plex tandem mass tag (TMT) reagents (Thermo Fisher Scientific, Rockford, Ill.). Reagents, 5.0 mg, were dissolved in 252 μl acetonitrile (ACN) and 5 μl of the solution was added to the digested peptides dissolved in 25 μl of 200 mM HEPES, pH 8.5. After 1 hour at room temperature, the reaction was quenched by adding 1 μl of 5% hydroxylamine. Labeled peptides were combined and acidified prior to C18 Stage-Tips desalting.
# (§3) All LC-MS/MS experiments were performed on an Orbitrap Fusion™ Lumos mass spectrometer (Thermo Fisher Scientific, San Jose, Calif., USA) coupled with a Proxeon EASY-nLC™ 1200 LC pump (Thermo Fisher Scientific). Peptides were separated on a 100 μm inner diameter microcapillary column packed with 35 cm of Accucore™ C18 resin (1.8 μm, 100 Å, Thermo Fisher Scientific). […]
# [2] = molecular target: T2, MLO-Y4 cell surface proteins; experiment: as above; type: binding; conditions: co-precipitated protein Arfip2 (ARFP2_MOUSE)
# Protocol: as §1, §2, §3
molecule,measurement,setting,value
"irisin: secreted cleaved form of FNDC5; recombinant human/mouse irisin with C-terminal his tag produced in HEK293 cells (protein, left off: small tags and cut ends, secreted cleaved form of FNDC5; recombinant human/mouse irisin with C-terminal his tag produced in HEK293 cells) DSPSAPVNVTVRHLKANSAVVSWDVLEDEVVIGFAISQQKKDVRMLRFIQEVNTTTRSCALWDLEEDTEYIVHVQAISIQGQSPASEPVLFKTPREAEKMASKNKDEVTMKE",TMT signal-to-noise ratio,[1],3.32
same,irisin/adipsin TMT signal-to-noise ratio,[1],0.011
same,TMT signal-to-noise ratio,[2],377.903
same,irisin/adipsin TMT signal-to-noise ratio,[2],0.346
